Measurements: EP3470426A1 (Numab Therapeutics AG, dated 2019)
Where “and” joins values, the source holds several entries; their conditions need not be identical. Identical values can stand only once. Like-named read-outs stand apart in the source and are kept apart here.

Legend:
[1] = target: T1, CD137 on Jurkat NFkB reporter cells (human, UniProt Q07011 24-255); assay: cell-based or functional assay
[2] = target: T1, CD137 on Jurkat NFkB reporter cells; assay: cell-based or functional assay; remark: listed apart in the source
human PD-L1 on cells [3] = target: T2, human PD-L1 on cells (human, UniProt Q9NZQ7 19-290); assay: cell-based or functional assay
[4] = target: T1, CD137 on Jurkat NFkB reporter cells; assay: cell-based or functional assay; remark: listed apart in the source
[5] = target: T1, CD137 on Jurkat NFkB reporter cells; assay: cell-based or functional assay; remark: listed apart in the source
human PD-L1 on cells [6] = target: T2, human PD-L1 on cells; assay: cell-based or functional assay; remark: listed apart in the source
[7] = target: T1, CD137 on Jurkat NFkB reporter cells; assay: cell-based or functional assay; remark: listed apart in the source
[8] = target: T1, CD137 on Jurkat NFkB reporter cells; assay: cell-based or functional assay; remark: listed apart in the source
[9] = target: T1, CD137 on Jurkat NFkB reporter cells; assay: cell-based or functional assay; remark: listed apart in the source
[10] = target: T1, CD137 on Jurkat NFkB reporter cells; assay: cell-based or functional assay; remark: listed apart in the source
human PD-L1 on cells [11] = target: T2, human PD-L1 on cells; assay: cell-based or functional assay; remark: listed apart in the source
human PD-L1 on cells [12] = target: T2, human PD-L1 on cells; assay: cell-based or functional assay; remark: listed apart in the source
[13] = target: human PD-L1-Fc chimeric protein (human); assay: SPR, PD-L1-Fc captured, binder injected

Row | EC50, NFkB-luciferase reporter, CHO-PD-L1 cells [1] | max. activation (%), NF-kB reporter, CHO-PD-L1 [2] | IC50, NFAT-luciferase reporter gene assay (human PD-L1 on cells [3]) | EC50, NFkB-luciferase reporter, HCC827 cells stimulated with IFNg [4] | EC50, NFkB-luciferase reporter, HCC827 with IFNy stimulation, 24h [5] | EC50, NFkB-luciferase reporter, HCC827 without IFNy stimulation, 24h [5] | EC50 of IL-2 secretion, PBMC stimulated with SEA (human PD-L1 on cells [6]) | EC50, NFkB-luciferase reporter, PD-L1 expressing CHO cells, 24h [7] | EC50, NFkB-luciferase reporter, PD-L1 expressing CHO cells, 24h, + HSA [7] | max. activation (%), NF-kB reporter, HCC827 +IFNg [2] | max. activation (%), NF-kB reporter, HCC827 -IFNg [2] | EC50, NFkB-luciferase reporter, HCC827 cells without IFNg [8] | EC50, NFkB-luciferase reporter, PD-L1 expressing CHO cells, 6h [9] | EC50, NFkB-luciferase reporter, PD-L1 expressing CHO cells, 6h, + HSA [9] | EC50, NFkB-luciferase reporter, CHO-PD-L1 cells [10] | other results | Binder
1 | 33.7 ng/mL | 432% | 88.5 ng/mL | – | – | – | – | – | – | – | – | – | – | – | – | – | PRO951 (bispecific antibody) DIQMTQSPSSLSASVGDRVTITCQASQSINDYLAWYQQKPGKAPKLLIYKASTLASGVPSRFSGSGSGTDFTLTISSLQPEDFATYYCQQGYIITDIDNVFGTGTKVTVLGGGGGSEVQLVESGGGLVQPGGSLRLSCAASGFSFNNDYDMCWVRQAPGKGLEWIGCIDTGDGSTYYASWAKGRFTISRDNSKNTVYLQMNSLRAEDTAVYYCAREAASSSGYGMGYFDLWGQGTLVTVSSGGGGSGGGGSGGGGSGGGGSIQMTQSPSSLSASVGDRVTITCQSSQSVYDNNWLAWYQQKPGKAPKLLIYRASNLASGVPSRFSGSGSGTDFTLTISSLQPEDFATYYCQGTYLSSNWYWAFGTGTKVTVLGGGGGSQVQLQESGPGLVKPSETLSLTCKVSGFSFSSGYDMCWIRQPPGKGLEWIGCVVAGSVDITYYASWAKGRVTISVDSSKNQFSLKLSSVTAADTAVYYCARKDAYSDAFNLWGQGTLVTVSS
2 | 11.7 ng/mL | 499% | 137 ng/mL | 9.27 ng/mL and 8.88 ng/mL and 9.23 ng/mL | 7.51 ng/mL | 9.52 ng/mL | 39.9 ng/mL | 13.8 ng/mL | 14.8 ng/mL | 134% | 111% | 11.5 ng/mL and 13.1 ng/mL and 13 ng/mL | 7.84 ng/mL | 7.92 ng/mL | 5.13 ng/mL and 4.86 ng/mL and 6.3 ng/mL | EC50 of IL-2 secretion, PBMC + CHO cells expressing PD-L1 (50000/well), anti-CD3 1 ug/ml (human PD-L1 on cells [11]): 12.8 ng/mL; EC50 of IL-2 secretion, PBMC + CHO cells expressing PD-L1 (50000/well), anti-CD3 2 ug/ml (human PD-L1 on cells [11]): 52 ng/mL; EC50 of IL-2 secretion, PBMC + CHO cells expressing PD-L1 (100000/well), anti-CD3 1 ug/ml (human PD-L1 on cells [11]): 86.2 ng/mL; EC50 of IL-2 secretion, PBMC + CHO cells expressing PD-L1 (100000/well), anti-CD3 2 ug/ml (human PD-L1 on cells [11]): 41.9 ng/mL; EC50 of IL-2 secretion, PBMC + CHO cells expressing PD-L1 (200000/well), anti-CD3 1 ug/ml (human PD-L1 on cells [11]): 80.6 ng/mL; EC50 of IL-2 secretion, PBMC + CHO cells expressing PD-L1 (200000/well), anti-CD3 2 ug/ml (human PD-L1 on cells [11]): 30.1 ng/mL | PRO885 (bispecific antibody) DIQMTQSPSSLSASVGDRVTITCQASQSINDYLAWYQQKPGKAPKLLIYKASTLASGVPSRFSGSGSGTDFTLTISSLQPEDFATYYCQQGYIITDIDNVFGTGTKVTVLGGGGGSQVQLQESGPGLVKPSETLSLTCKVSGFSFSNSYWICWIRQPPGKGLEWIGCTFVGSSDSTYYANWAKGRVTISVDSSKNQFSLKLSSVTAADTAVYYCARHPSDAVYGYANNLWGQGTLVTVSSGGGGSGGGGSGGGGSGGGGSIQMTQSPSSLSASVGDRVTITCQASQSINNVLAWYQQKPGKAPKLLIYRASTLASGVPSRFSGSGSGTDFTLTISSLQPEDFATYYCQSSYGNYGDFGTGTKVTVLGGGGGSQVQLQESGPGLVKPSETLSLTCKVSGFSFSSGYDMCWIRQPPGKGLEWIGCVVAGSVDITYYASWAKGRVTISVDSSKNQFSLKLSSVTAADTAVYYCARKDAYSDAFNLWGQGTLVTVSS
3 | – | 229% | – | 4.83 ng/mL | – | – | – | – | – | 188% | 113% | 5.62 ng/mL | – | – | 3.68 ng/mL | – | PRO1124 (bispecific antibody) DIQMTQSPSSLSASVGDRVTITCQASQSINDYLAWYQQKPGKAPKLLIYKASTLASGVPSRFSGSGSGTDFTLTISSLQPEDFATYYCQQGYIITDIDNVFGTGTKVTVLGGGGGSQVQLQESGPGLVKPSETLSLTCKASGFSFSNSYWICWVRQPPGKGLEWIGCTFVGSSDSTYYANWAKGRVTISKDSSKNQVSLKLSSVTAADTAVYFCARHPSDAVYGYANNLWGQGTLVTVSSGGGGSGGGGSGGGGSGGGGSLQMTQSPSSLSASVGDRVTITCQASQSINNVLAWYQQKPGKPPKLLIYRASTLASGVPSRFSGSGSGTDFTLTISSLQPEDFATYYCQSSYGNYGDFGTGTKVTVLGGGGGSQVQLQESGPGLVKPSETLSLTCKVSGFSFSSGYDMCWIRQPPGKGLEWIGCVVAGSVDITYYASWAKGRVTISVDSSKNQFSLKLSSVTAADTAVYYCARKDAYSDAFNLWGQGTLVTVSS
4 | – | 242% | – | 5.48 ng/mL | – | – | – | – | – | 208% | 135% | 6.97 ng/mL | – | – | 6 ng/mL | IC50, NFAT-luciferase reporter gene assay (human PD-L1 on cells [12]): 48.1 ng/mL; fold improvement of neutralization potency against PRO885, NFAT reporter (human PD-L1 on cells [12]): 3 fold | PRO1126 (bispecific antibody) DFQLTQSPSSLSASVGDRVTITCQASQSINDYLAWYQQKPGKSPKLLIYKASTLASGVPSRFSGSGSGTDFTLTISSLQPEDFATYYCQQGYIITDIDNVFGTGTKVTVLGGGGGSQVQLQESGPGLVKPSETLSLTCKVSGFSFSNSYWICWIRQPPGKGLEWIGCTFVGSSDSTYYANWAKGRVTISVDSSKNQFSLKLSSVTAADTAVYYCARHPSDAVYGYANNLWGQGTLVTVSSGGGGSGGGGSGGGGSGGGGSIQMTQSPSSLSASVGDRVTITCQASQSINNVLAWYQQKPGKAPKLLIYRASTLASGVPSRFSGSGSGTDFTLTISSLQPEDFATYYCQSSYGNYGDFGTGTKVTVLGGGGGSQSQLQESGPGLVKPSETLSLTCKASGFSFSSGYDMCWVRQPPGKGLEWIACVVAGSVDITYYASWAKGRVTISKDSSKNQVSLKLSSVTAADTAVYFCARKDAYSDAFNLWGQGTLVTVSS
5 | 79.1 ng/mL | – | – | 114 ng/mL and 145 ng/mL and 108 ng/mL | 52.8 ng/mL | 47.5 ng/mL | – | 46.6 ng/mL | 78.2 ng/mL | – | – | 212 ng/mL and 110 ng/mL and 112 ng/mL | 56.5 ng/mL | 77.7 ng/mL | 79.5 ng/mL and 104 ng/mL and 86.5 ng/mL | – | Urelumab (antibody, V domains shown) VH: QVQLQQWGAGLLKPSETLSLTCAVYGGSFSGYYWSWIRQSPEKGLEWIGEINHGGYVTYNPSLESRVTISVDTSKNQFSLKLSSVTAADTAVYYCARDYGPGNYDWYFDLWGRGTLVTVSS VL: EIVLTQSPATLSLSPGERATLSCRASQSVSSYLAWYQQKPGQAPRLLIYDASNRATGIPARFSGSGSGTDFTLTISSLEPEDFAVYYCQQRSNWPPALTFGGGTKVEIK
6 | – | – | 11.1 ng/mL | – | – | – | 40.9 ng/mL | – | – | – | – | – | – | – | – | fold higher potency on VH4 framework than on VH1 framework (PRO1013), NFAT reporter (human PD-L1 on cells [12]): ~2 fold; fold higher affinity against the STR graft of clone 33-03-G02 (PRO1126) [13]: ~2 fold | PRO997 (scFv, also called 37-20-B03sc01; PRO977) scFv: DIQMTQSPSSLSASVGDRVTITCQASQSIGTYLAWYQQKPGKAPKLLIYRAFILASGVPSRFSGSGSGTDFTLTISSLQPEDFATYYCQSNFYSDSTTIGPNAFGTGTKVTVLGGGGGSGGGGSGGGGSGGGGSQVQLQESGPGLVKPSETLSLTCKVSGFSFNSDYWIYWIRQPPGKGLEWIGSIYGGSSGNTQYASWAQGRVTISVDSSKNQFSLKLSSVTAADTAVYYCARGYVDYGGATDLWGQGTLVTVSS
